What all share (assay): potentiometry
In one data set the target is Lys70. To be noted: 298 K, 0.1 M NaClO4, none (HClO4-acidified solution titrated with 0.1 M carbonate-free NaOH under argon).
A further data set addresses Cys143. The note with it: 298 K, 0.1 M NaClO4, none (HClO4-acidified solution titrated with 0.1 M carbonate-free NaOH under argon).
For another data set, the target named is His323. The note with it: 298 K, 0.1 M NaClO4, none (HClO4-acidified solution titrated with 0.1 M carbonate-free NaOH under argon).
For another data set, the target named is Asp127. To be noted: 298 K; 0.1 M NaClO4; none (HClO4-acidified solution titrated with 0.1 M carbonate-free NaOH under argon); free (apo) peptide.
[1] abbreviates: Cu(II)-bound, mononuclear 1:1 complex.

In the case of EMMTPHHQDAIDMAEMALQKAEHPE, the figures for the pKa in the data set with Lys70 (setting [1]) and with Lys70 (free (apo) peptide) were 9.56 and 9.94, respectively.
For GACPNRMDAAAAAAAADHIMD, the pKa with Cys143 (setting [1]) is on record as 7.49; with Cys143 (free (apo) peptide), 9.56; with His323 (setting [1]) it was 5.05; with His323 (free (apo) peptide) it was 6.92.
As to GMMGMHQGHGMMAMD, the pKa with Asp127 was 3.80.

These data come from article PMC11836926.
